Measurements published in paper PMC7207076 (Biochemistry, 2020).
Non-standard residues stand in square brackets, D forms with d. No end group written: not given here. Lys(Me3) = C[N+](C)(C)CCCC[C@H](N)C(=O)O

Tests used:
KDM5A1–797 [1] = molecular target: T1, KDM5A1–797 (Homo sapiens, UniProt P29375); assay type: biochemical; conditions: for KDM5A1–797 activity normalized to the 18mer WT peptide reaction (100%): H3K4me3 basic patch mutant/deletion peptides
T1 sequence (P29375 1-797): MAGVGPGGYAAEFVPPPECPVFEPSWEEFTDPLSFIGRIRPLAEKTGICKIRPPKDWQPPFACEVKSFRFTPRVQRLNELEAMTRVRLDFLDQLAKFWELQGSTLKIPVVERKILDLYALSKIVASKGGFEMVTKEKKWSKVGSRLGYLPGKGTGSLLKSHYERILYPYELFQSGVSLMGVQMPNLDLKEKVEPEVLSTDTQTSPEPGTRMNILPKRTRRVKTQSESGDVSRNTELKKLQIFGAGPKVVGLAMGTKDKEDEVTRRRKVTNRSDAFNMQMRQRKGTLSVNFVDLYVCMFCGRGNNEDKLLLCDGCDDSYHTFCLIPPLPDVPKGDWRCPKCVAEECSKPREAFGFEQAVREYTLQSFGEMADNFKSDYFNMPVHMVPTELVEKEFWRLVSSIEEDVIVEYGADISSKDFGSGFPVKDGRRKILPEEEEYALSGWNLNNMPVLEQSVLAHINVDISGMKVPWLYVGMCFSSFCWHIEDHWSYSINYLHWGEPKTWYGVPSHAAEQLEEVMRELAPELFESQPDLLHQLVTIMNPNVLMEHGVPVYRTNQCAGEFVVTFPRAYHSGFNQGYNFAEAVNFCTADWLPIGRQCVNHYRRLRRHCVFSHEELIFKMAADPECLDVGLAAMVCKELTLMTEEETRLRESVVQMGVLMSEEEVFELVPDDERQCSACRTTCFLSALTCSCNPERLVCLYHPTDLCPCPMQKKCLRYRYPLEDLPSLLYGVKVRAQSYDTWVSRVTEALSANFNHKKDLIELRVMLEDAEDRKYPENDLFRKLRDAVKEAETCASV

KDM5A1–797 [2] = molecular target: T1, KDM5A1–797; assay type: biochemical; conditions: for fold increase of KMapp compared to the 18mer WT peptide: H3K4me3 basic patch (K14-K18) deletion/mutant/acetylated peptides; for kcat: 21mer H3K4me3 peptide substrates, saturating (20 μM) effector peptide (unmodified H3 10mer, aa 1–10), means ± SEM of two independent experiments, SEM; for fold increase of KMapp relative to 21mer WT peptide: 21mer H3K4me3 peptides, PHD1 domain saturated with effector peptide

Substance | kcat (KDM5A1–797 [2]) [s⁻¹] | fold increase of KMapp relative to 21mer WT peptide (KDM5A1–797 [2]) | further results
13mer: 13mer H3K4me3 peptide lacking the K14-K18 basic patch (ARTKQTARKSTGG; K4me3; UniProt P68431 2-14, looked up, fragment) | – | – | KDM5A1–797 activity normalized to the 18mer WT peptide reaction (100%) (KDM5A1–797 [1]; two independent experiments): 28%−35%; fold increase of KMapp compared to the 18mer WT peptide (KDM5A1–797 [2]): 8 fold
18mer-K14A/R17A/K18A: 18mer H3K4me3 peptide, K14A/R17A/K18A triple mutant (ART[Lys(Me3)]QTARKSTGGAAPAA; UniProt P68431 2-19, looked up, variant K14A R17A K18A) | – | – | KDM5A1–797 activity normalized to the 18mer WT peptide reaction (100%) (KDM5A1–797 [1]; two independent experiments): 28%−35%; fold increase of KMapp compared to the 18mer WT peptide (KDM5A1–797 [2]): 8 fold
H3K18me3 (aa 12—32): H3 peptide aa 12—32 trimethylated at K18 | – | – | demethylation of H3K18me3 peptide by KDM5A1—797 (KDM5A1–797 [1]; peptide incubated with KDM5A1—797 (Figure S3)): no demethylation was detected
K9A: 21mer H3K4me3 peptide with K9A mutation | 0.061 ± 0.002 | – | –
Q5A: 21mer H3K4me3 peptide with Q5A mutation | 0.056 ± 0.003 | > 30 fold | KDM5A1–797 activity normalized to the 21mer H3K4me3 WT peptide reaction (100%) (KDM5A1–797 [1]; 21mer H3K4me3 alanine mutant peptides, two independent experiments): ~ 20%
R2A: 21mer H3K4me3 peptide with R2A mutation | 0.069 ± 0.002 | ~ 12 fold | fold rescue in demethylation in the presence of the effector peptide (KDM5A1–797 [1]; 20 μM effector (unmodified 10mer H3 peptide), 21mer H3K4me3 mutant peptide): ~ 3 fold
R8A: 21mer H3K4me3 peptide with R8A mutation | 0.054 ± 0.002 | ~ 4 fold | –
T3A: 21mer H3K4me3 peptide with T3A mutation | 0.056 ± 0.001 | – | –
T6A: 21mer H3K4me3 peptide with T6A mutation | 0.075 ± 0.004 | ~ 8 fold | –
T6S: 21mer H3K4me3 peptide with T6 mutated to serine | 0.070 ± 0.002 | – | –
T6V: 21mer H3K4me3 peptide with T6 mutated to valine | 0.050 ± 0.003 | 3 fold | –
WT: H3 N-terminal 21mer (aa A1-A21) H3K4me3 wild-type peptide substrate | 0.052 ± 0.001 | – | –
